Measured values taken from publication PMC4255253.

Target: human inducible heat shock protein 70 (hHsp70), full-length, non-tagged (human)
Test: BLI; biotinylated hHsp70 or DnaK immobilised on streptavidin biosensor tips, analyte in PBS (hHsp70 200-500 nM; hHsp40 20-50 nM; DnaK 200-500 nM), association 600 s, dissociation 600 s, 1:1 model

Chain of human inducible heat shock protein 70 (hHsp70), full-length, non-tagged (human) (P0DMV8 whole entry E110D): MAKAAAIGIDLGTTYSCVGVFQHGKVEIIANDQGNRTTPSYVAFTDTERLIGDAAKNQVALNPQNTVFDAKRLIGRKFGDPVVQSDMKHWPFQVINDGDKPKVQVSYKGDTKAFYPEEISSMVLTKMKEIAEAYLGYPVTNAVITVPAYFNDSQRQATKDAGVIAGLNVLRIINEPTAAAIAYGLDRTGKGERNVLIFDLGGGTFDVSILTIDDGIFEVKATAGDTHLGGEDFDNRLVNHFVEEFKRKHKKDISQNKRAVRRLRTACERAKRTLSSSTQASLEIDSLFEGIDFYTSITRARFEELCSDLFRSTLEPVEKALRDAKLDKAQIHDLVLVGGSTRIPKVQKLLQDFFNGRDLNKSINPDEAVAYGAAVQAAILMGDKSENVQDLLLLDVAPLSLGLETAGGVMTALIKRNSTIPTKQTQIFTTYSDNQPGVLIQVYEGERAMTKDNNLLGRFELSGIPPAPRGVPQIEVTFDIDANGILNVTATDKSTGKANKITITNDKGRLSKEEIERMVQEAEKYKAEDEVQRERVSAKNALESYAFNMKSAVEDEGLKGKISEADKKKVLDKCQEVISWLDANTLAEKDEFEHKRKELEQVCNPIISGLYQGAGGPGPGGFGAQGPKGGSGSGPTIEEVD

Kd: 0.52 nM
Substance: human heat shock protein 40 (hHsp40) (from UniProt P25685 1-340) (natural protein)
